PMC6235537 (Science Advances, 2018)

Columns and labels:
GM^CBM21 = biological target: T1, GM^CBM21 (Oryctolagus cuniculus, UniProt Q00756); assay: ITC; assay type: binding
T1 sequence (Q00756 102-237): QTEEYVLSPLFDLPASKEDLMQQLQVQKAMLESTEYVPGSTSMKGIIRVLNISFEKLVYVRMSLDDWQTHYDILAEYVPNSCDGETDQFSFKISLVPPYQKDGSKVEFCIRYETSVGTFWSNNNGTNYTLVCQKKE

His6-tagged PP1α_(7–330) [1] = biological target: T2, His6-tagged PP1α_(7–330) (UniProt P62136 7-330); assay: ITC
His6-tagged PP1α_(7–330) [2] = biological target: T2, His6-tagged PP1α_(7–330); assay: SPR
His6-tagged PP1β_(6–327) = His6-tagged PP1β_(6–327) (UniProt P62140 6-327); assay: ITC
His6-tagged PP1γ_(7–323) = His6-tagged PP1γ_(7–323) (UniProt P36873 7-323); assay: ITC
His6-tagged PP1α_(7–300) = His6-tagged PP1α_(7–300) (UniProt P62136 7-300); assay: ITC
His6-tagged PP1γ_(7–308) = His6-tagged PP1γ_(7–308) (UniProt P36873 7-308); assay: ITC
[3] = biological target: PP1α_(7–300) (as crystallised with GM^64–93 and microcystin-LR) (UniProt P62136 7-300); assay: crystal structure
Chain of PP1α_(7–300) (as crystallised with GM^64–93 and microcystin-LR) (P62136 7-300): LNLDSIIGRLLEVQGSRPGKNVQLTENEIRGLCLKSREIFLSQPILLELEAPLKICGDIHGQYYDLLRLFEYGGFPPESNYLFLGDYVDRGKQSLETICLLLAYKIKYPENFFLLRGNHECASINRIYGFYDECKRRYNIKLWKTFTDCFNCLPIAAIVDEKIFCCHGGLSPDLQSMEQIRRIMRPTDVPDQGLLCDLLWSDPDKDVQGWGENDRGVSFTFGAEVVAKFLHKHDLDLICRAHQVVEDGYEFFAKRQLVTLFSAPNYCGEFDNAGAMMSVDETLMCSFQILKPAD

T2 sequence (P62136 7-330): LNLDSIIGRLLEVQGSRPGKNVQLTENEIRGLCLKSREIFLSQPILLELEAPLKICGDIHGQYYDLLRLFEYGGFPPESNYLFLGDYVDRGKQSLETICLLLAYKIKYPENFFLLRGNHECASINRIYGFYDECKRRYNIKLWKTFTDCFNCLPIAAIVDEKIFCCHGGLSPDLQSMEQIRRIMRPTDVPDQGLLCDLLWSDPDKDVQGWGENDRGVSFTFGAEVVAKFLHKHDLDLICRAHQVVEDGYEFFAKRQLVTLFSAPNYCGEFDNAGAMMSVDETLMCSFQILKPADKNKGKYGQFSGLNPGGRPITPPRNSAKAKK
Chain of His6-tagged PP1γ_(7–308) (P36873 7-308): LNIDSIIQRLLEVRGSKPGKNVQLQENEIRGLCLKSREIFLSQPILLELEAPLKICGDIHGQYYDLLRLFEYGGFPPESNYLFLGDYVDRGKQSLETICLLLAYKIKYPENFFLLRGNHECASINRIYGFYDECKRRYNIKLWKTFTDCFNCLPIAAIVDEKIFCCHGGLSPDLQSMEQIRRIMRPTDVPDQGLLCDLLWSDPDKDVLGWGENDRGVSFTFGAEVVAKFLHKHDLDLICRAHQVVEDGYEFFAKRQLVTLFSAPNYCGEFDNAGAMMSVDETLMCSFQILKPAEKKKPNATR
Chain of His6-tagged PP1α_(7–300) (P62136 7-300): as the sequence (P62136 7-300) above
Chain of His6-tagged PP1β_(6–327) (P62140 6-327): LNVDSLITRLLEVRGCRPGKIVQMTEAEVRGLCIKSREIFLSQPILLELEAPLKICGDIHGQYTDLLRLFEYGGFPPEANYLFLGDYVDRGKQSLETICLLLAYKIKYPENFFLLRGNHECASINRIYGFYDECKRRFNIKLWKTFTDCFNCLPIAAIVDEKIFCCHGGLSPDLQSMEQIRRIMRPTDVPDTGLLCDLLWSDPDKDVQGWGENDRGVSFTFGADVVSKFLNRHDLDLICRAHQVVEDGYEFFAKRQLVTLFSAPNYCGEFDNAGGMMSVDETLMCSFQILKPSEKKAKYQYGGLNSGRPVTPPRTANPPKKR
Chain of His6-tagged PP1γ_(7–323) (P36873 7-323): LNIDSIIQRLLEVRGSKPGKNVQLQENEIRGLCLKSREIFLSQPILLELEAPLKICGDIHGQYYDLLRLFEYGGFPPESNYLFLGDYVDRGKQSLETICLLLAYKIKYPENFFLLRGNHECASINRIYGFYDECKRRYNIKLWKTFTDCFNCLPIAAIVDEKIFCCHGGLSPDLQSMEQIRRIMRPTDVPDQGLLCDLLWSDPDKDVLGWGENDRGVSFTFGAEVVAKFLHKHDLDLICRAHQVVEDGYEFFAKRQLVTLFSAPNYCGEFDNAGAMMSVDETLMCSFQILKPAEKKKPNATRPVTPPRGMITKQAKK

OC[C@H]1O[C@@H]2O[C@H]3[C@H](O)[C@@H](O)[C@@H](O[C@H]4[C@H](O)[C@@H](O)[C@@H](O[C@H]5[C@H](O)[C@@H](O)[C@@H](O[C@H]6[C@H](O)[C@@H](O)[C@@H](O[C@H]7[C@H](O)[C@@H](O)[C@@H](O[C@H]8[C@H](O)[C@@H](O)[C@@H](O[C@H]1[C@H](O)[C@H]2O)O[C@@H]8CO)O[C@@H]7CO)O[C@@H]6CO)O[C@@H]5CO)O[C@@H]4CO)O[C@@H]3CO [β-CD]
Kd (GM^CBM21): 8200 ± 100 nM

OC[C@H]1O[C@@H]2O[C@H]3[C@H](O)[C@@H](O)[C@@H](O[C@H]4[C@H](O)[C@@H](O)[C@@H](O[C@H]5[C@H](O)[C@@H](O)[C@@H](O[C@H]6[C@H](O)[C@@H](O)[C@@H](O[C@H]7[C@H](O)[C@@H](O)[C@@H](O[C@H]1[C@H](O)[C@H]2O)O[C@@H]7CO)O[C@@H]6CO)O[C@@H]5CO)O[C@@H]4CO)O[C@@H]3CO [α-CD]
Kd (GM^CBM21): 27600 nM

B1: GM^2–237 (muscle glycogen-targeting subunit of PP1, PPP1R3A, residues 2 to 237) (domain or fragment)
chain: EPSEVPGQNSKDNFLEVPNLSDSLCEDEEVKAIFKPGFSPQPSRRGSESSEEVYVHTASSGGRRVSFADNFGFNLVSVKEFDTWELPSVSTTFELGKDAFQTEEYVLSPLFDLPASKEDLMQQLQVQKAMLESTEYVPGSTSMKGIIRVLNISFEKLVYVRMSLDDWQTHYDILAEYVPNSCDGETDQFSFKISLVPPYQKDGSKVEFCIRYETSVGTFWSNNNGTNYTLVCQKKE
Kd (His6-tagged PP1α_(7–330) [1]): 26.5 ± 2.3 nM
dH (His6-tagged PP1α_(7–330) [1]): -20.2 ± 1 kcal/mol

RRVSFADNFGFNLVSVKEFDTWELPSVSTTFELGKDAFQTEE [GM^64–105 peptide]
Kd (His6-tagged PP1α_(7–330) [2]): 114 ± 4 nM

B2: GM^64–237 (domain or fragment)
chain: RRVSFADNFGFNLVSVKEFDTWELPSVSTTFELGKDAFQTEEYVLSPLFDLPASKEDLMQQLQVQKAMLESTEYVPGSTSMKGIIRVLNISFEKLVYVRMSLDDWQTHYDILAEYVPNSCDGETDQFSFKISLVPPYQKDGSKVEFCIRYETSVGTFWSNNNGTNYTLVCQKKE
Kd (His6-tagged PP1α_(7–330) [1]): 20.8 ± 2.4 nM
dH (His6-tagged PP1α_(7–330) [1]): -34.5 ± 2.4 kcal/mol
Kd (His6-tagged PP1β_(6–327)): 17.3 ± 4 nM
dH (His6-tagged PP1β_(6–327)): -15.4 ± 0.8 kcal/mol
Kd (His6-tagged PP1γ_(7–323)): 21.4 ± 11.6 nM
dH (His6-tagged PP1γ_(7–323)): -22.6 ± 0.1 kcal/mol
Kd (His6-tagged PP1α_(7–300)): 51 ± 5.1 nM
dH (His6-tagged PP1α_(7–300)): -25.1 ± 0.9 kcal/mol
Kd (His6-tagged PP1γ_(7–308)): 55.7 ± 5.1 nM
dH (His6-tagged PP1γ_(7–308)): -13.3 ± 5.2 kcal/mol

RRVSFADNFGFNLVSVKEFDTWELPSVSTT [GM^64–93 peptide]
binding result [3]: binds
